{"source": "patent US12186353B2", "about": "“Method of reducing neuronal microtubule binding protein Tau (Tau) levels” (ADAERATA, LIMITED PARTNERSHIP, priority 2018, dated 2025)", "molecules": {"B1": {"name": "Numb-72: 72 kDa Numb isoform with long PTB domain and long PRR; human isoform 1 (SEQ ID NO: 1); expressed by transfection (protein)", "chain": "MNKLRQSFRRKKDVYVPEASRPHQWQTDEEGVRTGKCSFPVKYLGHVEVDESRGMHICEDAVKRLKAERKFFKGFFGKTGKKAVKAVLWVSADGLRVVDEKTKDLIVDQTIEKVSFCAPDRNFDRAFSYICRDGTTRRWICHCFMAVKDTGERLSHAVGCAFAACLERKQKREKECGVTATFDASRTTFTREGSFRVTTATEQAEREEIMKQMQDAKKAETDKIVVGSSVAPGNTAPSPSSPTSPTSDATTSLEMNNPHAIPRRHAPIEQLARQGSFRGFPALSQKMSPFKRQLSLRINELPSTMQRKTDFPIKNAVPEVEGEAESISSLCSQITNAFSTPEDPFSSAPMTKPVTVVAPQSPTFQANGTDSAFHVLAKPAHTALAPVAMPVRETNPWAHAPDAANKEIAATCSGTEWGQSSGAASPGLFQAGHRRTPSEADRWLEEVSKSVRAQQPQASAAPLQPVLQPPPPTAISQPASPFQGNAFLTSQPVPVGVVPALQPAFVPAQSYPVANGMPYPAPNVPVVGITPSQMVANVFGTAGHPQAAHPHQSPSLVRQQTFPHYEASSATTSPFFKPPAQHLNGSAAFNGVDDGRLASADRHTEVPTGTCPVDPFEAQWAALENKSKQRTNPSPTNPFSSDLQKTFEIEL", "modifications": "homo sapiens", "notes": "72 kDa Numb isoform with long PTB domain and long PRR; expressed by transfection"}}, "key": {"[1]": {"tested_on": "primary RGC neuron cultures", "test": "Axonal blebs, neurite length and branching in transfected primary RGC neuron cultures of AD and tauopathy mice", "format": "cell-based, mouse", "settings": "for number of axonal blebs: plasmid transfection, two weeks later, vs GFP", "experimental": "FIGS. 10A-H: Numb72 reduces blebbing in AD mouse model RGCs. FIG. 10A. Primary retinal cultures were performed at P8 and cells were transfected using an Amaxa™ electroporator and analysed 14 days later. Cells GFP and NF165 positive were analysed in B6129J mouse line (Control) and triple transgenic mice (3×TGAD) expressing three mutations associated with familial Alzheimer's disease (APP Swedish, MAPT P301L, and PSEN1 M146V) after transfection of GFP or Numb-72 IRES::GFP. […] FIGS. 10B-D. Quantification of relative number of axonal blebs (FIG. 10B); axon (neurites) length (FIG. 10C) and branching number (FIG. 10D) in Control (B6129J) and 3×TGAD RGC axons was performed. Control numbers were normalized to 1. Error bars represent SEM, ** p≤0.001; n.s. non-significant; Anova 2 way for blebs and Student's t test for length and branching. FIG. 10E Primary retinal culture was performed at P8 and cells were transfected using an Amaxa™ electroporator and analysed 14 days later. Cells GFP and NF165 positive were analysed in C57b6 mouse line (Control) and P301S Tau mutant (TauP301S) (model of tauopathy) after transfection of GFP or Numb-72 IRES::GFP. […] FIGS. 10F-H. Quantification of relative number of axonal blebs (FIG. 10F); axon (neurites) length (FIG. 10G) and branching number (FIG. 7H) in Control (C57b6) (Control, FIGS. 10F-H) and TauP301S (FIGS. 10F-H) RGC axons was performed. Control numbers were normalized to 1. Error bars represent SEM, * p≤0.05; n.s. non-significant Anova 2 way for blebs and Student's t test for length and branching.\nRetinal tissues were isolated from eyeballs of postnatal day 7 (P7) mice, cut in small pieces and incubated in PBS containing 5 mg/ml of papain, 0.24 mg/ml of L-cysteine, 0.5 mmol/l of EDTA, and 10 U/ml of DNase I for 2×3 min. The reaction was stopped by adding Lo-Ovo solution in PBS, and 10 U/ml of DNase I. The retinal cells were mechanically dissociated by gentle pipetting and collected as a suspension. Procedures were conducted at room temperature in a laminar flow hood. After centrifugation at 1000 rpm for 11 min, cells were resuspended in RGCs media and plate on glass coverslips at 50′000 cells/coverslips on a 24 wells plate and incubated at 37° C.; 8% CO2 for 2 weeks, half media was changed every 3 days. […]\nTo determine the neuroprotective effects of Numb-72, the inventors prepared primary RGC neuron cultures from control mice, triple transgenic mice (3×TGAD) expressing three mutations associated with familial Alzheimer's disease (APP Swedish, MAPT P301L, and PSEN1 M146V), or a P301S Tau mutant (model of tauopathy), and then expressed GFP or Numb-72 in these neurons by plasmid transfection. Two weeks later, the length of neurites, the number of branches, and the number of axonal blebs were counted."}, "Tau::GFP fusion protein": {"tested_on": "Tau::GFP fusion protein", "test": "Intracellular Tau::GFP fluorescence in stable inducible HEK293 cells with proteasome or lysosome inhibitor", "format": "cell-based", "settings": "stable inducible HEK293, Numb72 vs control empty vector, fixed 48 h after doxycycline", "experimental": "FIG. 7A Stable inducible cell line HEK293 that express a Tau::GFP fusion protein was transfected with Control Myc or Numb72::Myc, and the Tau::GFP expression was activated by adding Doxycycline 6 h later. The cells were fixed 48 h later and stained for Myc. FIG. 7B. The mean intensity (±SEM) of intracellular Tau::GFP fluorescence in transfected cells was quantified. Cells were treated with vehicle, MG132 (a proteasome inhibitor, 25 uM) or Chloroquine (a lysosome inhibitor, 25 uM) for 4 h before fixation and Myc staining. Quantification represents mean intensity +/− SEM, *p≤0.01; Anova 1-way test.\nThe potential role of the proteasome and of the lysosome on the ability of Numb to reduce Tau levels was assessed. A stable inducible cell line (HEK293) expressing a Tau::GFP fusion protein was transfected with\nNumb72 or a control empty vector. The intracellular Tau::GFP levels was compared when the cells were treated with a proteasome inhibitor (MG132), a lysosome inhibitor (Chloroquine) or a control (vehicle). […] (FIGS. 7A-B)."}, "[2]": {"settings": "control, 3xTGAD and P301S RGC neurons, two weeks after transfection"}}, "data": [{"molecule": "B1", "values": [{"measurement": "number of axonal blebs", "setting": "[1]; 3xTGAD RGC neurons", "value": "reduced back to control levels"}, {"measurement": "number of axonal blebs", "setting": "[1]; P301S Tau mutant RGC neurons", "value": "reduced back to control levels"}, {"measurement": "neurite length", "setting": "[1]; [2]", "value": "not changed in any condition"}, {"measurement": "number of branches", "setting": "[1]; [2]", "value": "not changed in any condition"}, {"measurement": "intracellular Tau::GFP levels", "setting": "Tau::GFP fusion protein", "value": "induced a decrease of Tau::GFP levels"}]}]}
